{"source": "the nanobody polyreactivity screen of Harvey et al. (2022)", "data": [{"experiment": "yeast display, Sf9 membrane polyspecificity reagent, FACS + sequencing; frameworks hold sequencing errors", "summary_of_the_method": "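A nanobody's polyreactivity label depends on the gate it was sorted from. Yeast display cells were stained with 10% biotinylated, detergent-solubilized Sf9 membrane reagent for 1 hour at 4 °C, enriched on streptavidin microbeads and sorted by FACS. The low and high (top ~1%) gates were set on anti-HA fluorescence for expression and streptavidin fluorescence for reagent binding.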", "values": [{"sequence": "LVQLVESGGCLVQAGGSLRVSCAASGTIFQIKAMGWYRQAPGIEREKVATIRWRGSSTYYADSVKGRFTISRDNAKNTVYLQKNSLKPEDTAVYYSAARAGTLNSGGYYSWGQGTQVSVSS", "polyreactivity (PSR sort gate)": "high polyreactivity"}, {"sequence": "LVQLVESGGGLVQAGGSLRLSCAASGRTFRLNALGWYRPAPGNERELVARITGSSGGSTYSADSVKGRFTISRDNAKNTVYLQMNSLKPEDTAVYYCAARYTPRGKRYDYWGQGTQVTGSS", "polyreactivity (PSR sort gate)": "high polyreactivity"}, {"sequence": "LVQLVESGGGLVQAGGSLRLSCAASGSIFRYYVMGWYRQAPGKDRELVAAISTGDRTNYADSVKGRFTISRDNPKKTVYLQMNSQKPEDTAVYYCNADYVVGWARLEFNYWGQGTQVTVSS", "polyreactivity (PSR sort gate)": "low polyreactivity"}, {"sequence": "LVQLVESGGGLVQAGGSLRLSCAASGSLFVVTAMGWYRQAPGKERELVAAFSSGGRTYYADSVKGRFTISRDNAKNTVYLQMNSVKPEDTAVYYCAAGGWRGHCYWGQGTQVTVSS", "polyreactivity (PSR sort gate)": "high polyreactivity"}, {"sequence": "LVQLVESGGGLVQAGGSLSLSCAAYGRTFAKNAMGWYRQAPGKERDLVAVINRSGGSTYADSVKGRFTISRDNAKNTVYLQMNSLKPEDTAVYYWADYYFRSYSKTYIYPFDYWGQGSQVTVSS", "polyreactivity (PSR sort gate)": "low polyreactivity"}, {"sequence": "LVQLVESGGRLVQAGGSLRLSCAASGNIFWYAMGWYRQAPGKERELVAAITYRGSTTYFAYSVKGRVTISRDKAKNTVYLQMNSLHPEDTAVYYCAARASYTRRHVGRPYDYWGQGTQVTVSS", "polyreactivity (PSR sort gate)": "high polyreactivity"}, {"sequence": "PVQHVESGGGLVQAGGSLRLSCAASGSTLRTYAMGWYRQAPGKERELVAAISFSTTSTYYADSVKGRFTISRDNAKNTVYLQMNSLKPEDTADYYCAAGPRTRYQPDLPGCYYSWGQGTQVTVSS", "polyreactivity (PSR sort gate)": "high polyreactivity"}, {"sequence": "PVQLVDSGGGLVQAGGSLRLSCAASGKIFFGYTMGWYRTAPGKERELVAAITYRGGRTYYADSEKGRFTISRDNAKHTVYLQMNSLKPEDTAVYYFAVGGSGYGRYGGGYARDYWGQGTQVTVSS", "polyreactivity (PSR sort gate)": "high polyreactivity"}, {"sequence": "PVQLVESGGGLGQAGGSLSLRCAASGSIFTYYAMVWYRQAPGKERELVADISNSGSTYYADSVNGRFTISRDNAKNTVYLQMNRLKPEDSAVSSCNAEYHDLYDYWGQGTQVTVSS", "polyreactivity (PSR sort gate)": "low polyreactivity"}, {"sequence": "PVQLVESGGGLVQAGGSLRLSCAASGFTFFYYAMGGYRQGPGKERELVAALNWSGGRTYYADSVKGRFTISRDNAKNTVYLQRNSLKPEDTAVYYCAVDRSWSTRYPAYPGGYWGQGTQVTVSS", "polyreactivity (PSR sort gate)": "high polyreactivity"}, {"sequence": "PVQLVESGGGLVQAGGSLRLSCAASGFTLYDYAMGWYRPAPGKERELVAAISRSGGRTYYADSVKGRFTISRDNAKNTVYLQMNSLKPEDTAVYYCAADILRGQWYEYDYWGQGTQVTVSS", "polyreactivity (PSR sort gate)": "high polyreactivity"}, {"sequence": "PVQLVESGGGLVQAGGSLRLSCAASGRIFPSYAMGWYRQAPGKERELVATINGDGGSTYYADSVKGRFTISRDNAKNTVYLQMNSLKPEDTAVYYCAKRYPFAAEYDYWGQGTQVTVSS", "polyreactivity (PSR sort gate)": "low polyreactivity"}, {"sequence": "PVQLVESGGGLVQAGGSLRLSCAASGRTFGLNGKGWYRQSPGKEREFVATITGSGTSTYYADSVKGRFTISRDNAKNTVYLQMNSLKPEDSAVYFCAALSGLWGYHYYHEYYYWGQGTQVTVSS", "polyreactivity (PSR sort gate)": "low polyreactivity"}, {"sequence": "PVQLVESGGGLVQAGGSLRLSCAASGRTFPFYGMGWYRQAPGKERELVAAISISGGSTYYADSVKGRFTISRDNAKNTVYVQMNSLKPEDTAVYYCAAVGPRSYGFGNGYWGQGTQVTVSS", "polyreactivity (PSR sort gate)": "high polyreactivity"}, {"sequence": "PVQLVESGGGLVQAGGSLRLSCAASGSTFRFYTMGWYRQAPGKERELVAAISGSGGSTYYADSVKGRFTISRDNAKNTVYLQMNSLIPEDPAVYFCAADKSRNASHRGYWGQGTQVTVSS", "polyreactivity (PSR sort gate)": "low polyreactivity"}, {"sequence": "PVQLVESGGGLVQAGGSLRLSFAASGRTFWVYAMGWYRQAPGKERELVAAINRRGGGTYYADSVKGRFTISRDNAKNTVYLQMNSLKPEDTPVYYCAAVTRNQGSYRYYYWGQGTQVTVSS", "polyreactivity (PSR sort gate)": "high polyreactivity"}, {"sequence": "QAQLEESGGGLVQAVGSLRLSCAASGRTFTNNDMGWYIQAPGKERELVAAIRWSGGSTYYADSVKGRFTISRDNAKNTVYFQMNSLKPEDTAVYYCAKGYGYVEAVIVQYDYWGQGTQVTVSS", "polyreactivity (PSR sort gate)": "low polyreactivity"}, {"sequence": "QAQLKDSCGGLVQAGGSLRLSCPASGNNTSEYYMGCCRQAPGKGREFVDAIDYGGTTNYADNVKGRFTISRDNAKNTVYLQMNSLRPEDTALYYCAASWDTIGLFAYWGQGSQVTVSS", "polyreactivity (PSR sort gate)": "high polyreactivity"}, {"sequence": "QAQLVESGGGLVQAGRSLRLSCAASGSTFRWYAMGWYRQAPGKERELVAAITSSGSTYYADSVKGRFTISRDNAKTTVYLQMNSLKPEDTAVYYCAARANGYWNTYEHDYWGQGIQVTVSS", "polyreactivity (PSR sort gate)": "low polyreactivity"}, {"sequence": "QAQLVESGGGLVQSGGSLRLSCAASGSIFRPYAMGWYRQAPGKERELVAAISSSGGGTYYADSVKGRFTISRDNAKNTVYLQMNILKPEDTSVYLYGSWGQGTQVNVSS", "polyreactivity (PSR sort gate)": "low polyreactivity"}, {"sequence": "QDHLVESGGGLVQAGGSLRLSCAASGRTFGRNAMGWYRQAPGKERDFVAAITSSGGSTYYADSVKGRFTISRDNAKNTVYFQMNSLKPEDSAVFYCARSTRYYSWRRMDYWGQGTQVTVSS", "polyreactivity (PSR sort gate)": "high polyreactivity"}, {"sequence": "QDHLVESGGGLVQAGGSLRLSCAASGSISWKNAMGWYRQAPGKERELVAAISSTVTYYADSVKGRFTISRDNAKNTVYLQMNSLKPEDTAVYYCAAVYLGYTTLYTGDYCGQGTQVTVSS", "polyreactivity (PSR sort gate)": "low polyreactivity"}, {"sequence": "QDLLVDSGGGLVQAGGSLRVSCAASGYTRFYAMGWYRQAPGKERELVAAISSSGGTTYYADSVKGRFTISRDNAKNNVYLQMNSLKPEDTAVYYCAKFLSYSRTLYDYWGQGTQVTVSS", "polyreactivity (PSR sort gate)": "high polyreactivity"}, {"sequence": "QDLLVESGGGLLQAGGSLRLICAASGYTFTYYAMGWYRQAPGKERELVAAINYSGGRTDYADSVKGRFTLSRDNAKNTVYLQKNSMNPEDTAVYYCAAYTRNGDFDYWGQGTQVTVSS", "polyreactivity (PSR sort gate)": "high polyreactivity"}, {"sequence": "QDLLVESGGGLVQAGGSLRLSCAASGSIFDDYAMGWYRQAPGKERELVAAISSSGTSTYYADSVKGRFTISRDHAKNTVYLQMNSLIPEYTAVYYCAARSAILKSGYLKDYWGQGTQVTVSS", "polyreactivity (PSR sort gate)": "low polyreactivity"}, {"sequence": "QDPLEESGGGLVQAGGSLRLSCAASGFTFTDYAMGWTRQAPGKERQLVAVISRSGGSTNYADSVKGRFTISRDKAKNTVYLQMNCLKPEDTAVYYCNAGKYLYRHGFLSSGDMYYWGQGTQVTVSS", "polyreactivity (PSR sort gate)": "high polyreactivity"}, {"sequence": "QDQHEESGGGLVQAGGSLRLICAASGLIFPRYAMGWYRPAPGKERELVAAITRGGSTYYADSVKGRFTISRDNAKNTVYLQMNSLKPEDTAVYYCNAELPVHWSWYDYWGQGTQVTVSS", "polyreactivity (PSR sort gate)": "low polyreactivity"}, {"sequence": "QDQHGESGGGLVQAGGRLRLSGAASGSTFPGNAMGWYRQAPGKERELVAAITSGGRTYYADSVKGRFTISRDNAKNTVYLQMNSLKPEDTAVYYCAVSTPIQRHGETYAKFDYWGQGTQVTVSS", "polyreactivity (PSR sort gate)": "low polyreactivity"}, {"sequence": "QDQHGESGGGLVQAGGSLRLSCAASGYTFLRNDMGWYRQPHGKVRELVAAISYSGGGTYYADSVKGRFTISRDNAKITVYLQMNSLKPEDTAVYYCNVAQRYYGNFFSSRYEYWGQGTQVTVSS", "polyreactivity (PSR sort gate)": "low polyreactivity"}, {"sequence": "QDQHVESAGGLVQAGGSRRLSCAASESMFSTYPMGCYSQAPGTESELVATIRRGGSTYYADSVKGRFTISRDNAKNTVYLQMNSLKPEDSAVYYCAATVSSYPYYRYYSWGQGTQVTVSS", "polyreactivity (PSR sort gate)": "high polyreactivity"}, {"sequence": "QDQHVESGGGLVQAGGSLRLSCAASGFIISYYDMGWYRQPPGHESELVATIDWSGGSTYYADSVKGRFTISRDNAKNTVYLQLNSLKPEDTAVYYCNADWIFGSAPSGRYKYDYWGQGTQVTVSS", "polyreactivity (PSR sort gate)": "low polyreactivity"}, {"sequence": "QDQHVESGGGLVQAGGSLRLSCAASGGIFYTYTMGWYRQAPGKEREFVAAITRSGDRTYYADSVKGRFTISRDNAKNTGYLQMNSLKPEDTAVYYCNTVTRKNPSGLALDEYNYCGQGTQVTVSS", "polyreactivity (PSR sort gate)": "high polyreactivity"}, {"sequence": "QDQHVESGGGLVQAGGSLRLSCAASGIIFDYNAMGWYRQAPGKERELVAAITSTDNTNYADSVKGRLTISRDNAKNTVYLQMNSLKPEDTAVYYCNSDYWLSVVYAMDYWGQGTQVTVSS", "polyreactivity (PSR sort gate)": "low polyreactivity"}, {"sequence": "QDQHVESGGGLVQAGGSLRLSCAASGLTFGTYAKGWYRQAPGKERELVAAITTGARTYFADSVKGRFTISRDNAKNTVYLKMNSLKPEDTAVYYCAAYKFYSEYEYWGQGTQVTVSS", "polyreactivity (PSR sort gate)": "high polyreactivity"}, {"sequence": "QDQHVESGGGLVQAGGSLRLSCAASGSTFGDNAMGWYRQAPGKERELVAAISRGGRTYYADSVKGRFTISRDNAKNTVYLQMNSLKPEDTAVYYCAATSAYRGYWVLRGLSYDYWGQGTQVTVSS", "polyreactivity (PSR sort gate)": "high polyreactivity"}, {"sequence": "QDQHVESGGGLVQAGGSLRLSCAASGTIFSYYAMGWYRQAPGKERELVASISWKGTSTYYADSVKGRFTISRDNSKNTVYLQMNSLKPEDTAVYYCNVRFNYRGTYDYWGQGTQVTVSS", "polyreactivity (PSR sort gate)": "low polyreactivity"}, {"sequence": "QDQHVESGGGLVQAGGSLRLSCDASGFIFNQNARGWYRQAPGKERELVAAISQRGGRTYYADSVKGRFTISRDNAKNTVYLQMNSLKPEDTAVYYCAAYGPFRFDVDTYDYWGQGTQVTVSS", "polyreactivity (PSR sort gate)": "low polyreactivity"}, {"sequence": "QDQHVESVGGLVQAGGSLLLSCAASGFTLRGYALGWDRQAPGKERELVADISGGGSTDYADSVKGRFTISRDNAKNTVYLQMNSLKPLDTAVYYCAAYGYLWWEMDYWGQGTQVTLSS", "polyreactivity (PSR sort gate)": "high polyreactivity"}, {"sequence": "QDQIVDSGGGLVQAGVSLRLSCAASGFTFGINTLGWYRQAPGKERELVAGISRTSSTYADSVKGRFTISRDNAKNTVYLQMNSLNAEDTAVYYCAAEYFQTRFGSWRKRYVSWGQGTQVTVSS", "polyreactivity (PSR sort gate)": "high polyreactivity"}, {"sequence": "QDQIVESGGGLVQAGGSLRLSCAASGRTFGVNTMGWSRQAPGKVREMVASISTSGGSTYADSVKGRFTISRDNPKNTVYLQMNSLKPEDSAVYYCAKDTDAVYDEFDSWGQGTQVTVSS", "polyreactivity (PSR sort gate)": "low polyreactivity"}, {"sequence": "QDQLEESGGGLVQAGGSLRLSCGASGSIYDTNDMGWYRQAPGKERELVSAISSGGNTNYADSVKGRFTISRDNAKNTVYLQMKSVKPEDTAVYYWAAVWLGVYSVWTYHHYDYWGQGTQVTVSS", "polyreactivity (PSR sort gate)": "low polyreactivity"}, {"sequence": "QDQLEESGGGLVQEGGSLRLSCAATGFTLAFNAMGWYRQAPGKERELVASITSSSGSTYYADSVKGRFTISRDNAKITVFLQMNSLKPEDTAVYYCARDLAIPQVLSQPIFGYWGQGTQVTVSS", "polyreactivity (PSR sort gate)": "low polyreactivity"}, {"sequence": "QDQLGESGGGLLQAGGSLRLSCAASGRTFRYYAMGSYRQEPGKERELVAAISISGGNTYYADSVKGRFTISRDHAKNTVYLQMNSLKPEDTAVYYCAASFSSRFYRARVDYWGQGTQVTVSS", "polyreactivity (PSR sort gate)": "high polyreactivity"}]}]}
